Source: patent US11142588B2, “Polypeptides which bind C-X-C chemokine receptor type 4 (CXCR4) and methods of treating or reducing the risk of fibrosis and cancer” (AdAlta Limited, priority 2015, dated 2021)

Biological target: T1, CCR4 (Homo sapiens, UniProt P51679)
T1 sequence (P51679 1-360): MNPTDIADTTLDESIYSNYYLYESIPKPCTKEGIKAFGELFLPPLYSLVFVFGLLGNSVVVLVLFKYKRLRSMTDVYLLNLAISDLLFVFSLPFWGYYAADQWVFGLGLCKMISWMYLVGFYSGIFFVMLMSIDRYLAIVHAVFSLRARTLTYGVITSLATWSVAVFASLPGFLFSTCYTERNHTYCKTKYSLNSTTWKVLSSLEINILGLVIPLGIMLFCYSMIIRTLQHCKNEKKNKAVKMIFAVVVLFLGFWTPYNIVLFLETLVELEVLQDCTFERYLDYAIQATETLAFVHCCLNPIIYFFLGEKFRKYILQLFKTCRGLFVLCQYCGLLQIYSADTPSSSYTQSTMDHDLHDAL
Assay: PathHunter (DiscoverX) β-arrestin assay, CCR4
Assay type: cell-based
Description: (FIG. 9) The PathHunter® β-Arrestin assay (DiscoveRx) was performed according to the manufacturer's protocol. Cells were seeded into white walled, 384-well tissue culture-treated microplates (Corning) and normalized at 5,000 cells (or 10,000 cells for CXCR4) in a total volume of […]. Cell growth was at 37° C. (5% CO2, 95% relative humidity). […] Agonists were then added at the EC80 concentration and incubation was continued at 37° C. for 90 min (or 180 min for CCR1). Assay signal was generated through a single addition of 15 μL (50% v/v) of PathHunter Detection reagent cocktail, followed by 1 h incubation at room temperature. Microplates were read following signal generation with a PerkinElmer Envision instrument for chemiluminescent signal detection of relative light units (RLU).

CCR4 activity: −2%
B1: AM3-523: affinity matured CXCR4 i-body, SEQ ID NO: 56 (protein)
chain: LQVDIVPSQGEISVGESKFFLCQVAGSGSHMRISWFSPNGEKLTPNQQRISVVWNDDSSSTLTIYNANIDDAGIYKCVVWVGGYRHRALVLGEATVNVKIFQ
modifications: protein sequence encoding AM3-523
